Measured values taken from paper PMC11133340.

Biological target: PSII-ACPII monomer (one PSII core monomer with six ACPII subunits and CCPII-S) (Chroomonas placoidea (endogenous in C. placoidea T11))
Test: cryo-EM structure; single-particle cryo-EM of the native PSII-ACPII supercomplex co-purified from C. placoidea thylakoids; 25 mM Hepes-KOH pH 7.5, 1 mM CaCl2, 0.012% α-DDM; C2 symmetry, 2.47 Å overall; local refinement of the peripheral ACPIIs to 2.84 Å

- stoichiometry N: 2
Substance: PSII-ACPII monomer (one PSII core monomer with six ACPII subunits and CCPII-S) (from UniProt A0A222AI37 1-351; A0A222AIE3 1-509; A0A222AI36 1-461; A0A222AI74 1-84; A0A222AI51 1-42; A0A222AIE4 1-67; A0A222AI80 1-38; A0A222AI54 1-39; A0A222AIA0 1-45; A0A222AI58 1-38; A0A222AID2 1-32; A0A222AI61 1-39; A0A222AI96 1-62; A0A222AI35 1-163) (complex)
